Among the data in PMC9798004 (Frontiers in Psychiatry, 2022) are EC80 values, retold here.

No end group written: not given here.

Usually EC80 stands for the concentration at which the effect reaches the 80% level. The low end stands for greater potency, the high end for weaker potency.

Common to all, as to assay: PathHunter β-arrestin assay
Type in all cases: cell-based

For one test, the target named is T1, MRGPRX1 (Homo sapiens, UniProt Q96LB2).
T1 construct: purchased Eurofins DiscoverX (PathHunter gpcrMAX)
The settings on record: screen, control agonist; CHO, 37C, 2HR.

The target in the next test is T2, MRGPRX2 (Homo sapiens, UniProt Q96LB1).
T2 sequence (Q96LB1 1-330): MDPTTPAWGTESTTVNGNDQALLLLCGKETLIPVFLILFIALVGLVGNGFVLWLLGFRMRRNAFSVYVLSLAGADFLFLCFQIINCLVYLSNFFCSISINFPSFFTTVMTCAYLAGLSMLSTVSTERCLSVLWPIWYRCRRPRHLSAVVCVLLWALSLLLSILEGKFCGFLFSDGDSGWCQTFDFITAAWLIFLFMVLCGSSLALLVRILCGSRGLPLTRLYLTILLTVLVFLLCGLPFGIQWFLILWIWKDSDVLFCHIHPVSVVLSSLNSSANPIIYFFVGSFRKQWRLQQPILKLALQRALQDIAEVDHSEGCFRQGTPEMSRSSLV
Particulars: control agonist. As for the experimental part:
(§1) Follow up experiments were prioritized based on the difference between S/N and CoV. Targets with a >5-fold difference between S/N and CoV were investigated for their potential contribution to the AMB-FUBINACA toxidrome with 10-point concentration-response curves generated in technical replicate (range 1.5–30 μM) using the EC80 of the relevant agonist, where applicable in antagonist mode. Simultaneous agonist and antagonist curves were run in parallel to ensure reliability of the assay (see Supplementary Table 2), with both RC50 and signal to background aligning with historical averages, and Z' >0.5. RC50 was estimated using a four-parameter fit (CBIS Data Analysis Suite, ChemInnovation, San Diego, CA) on normalized data.

The target in another test is T3, GLP2R (Homo sapiens, UniProt O95838).
T3 sequence (O95838 1-553): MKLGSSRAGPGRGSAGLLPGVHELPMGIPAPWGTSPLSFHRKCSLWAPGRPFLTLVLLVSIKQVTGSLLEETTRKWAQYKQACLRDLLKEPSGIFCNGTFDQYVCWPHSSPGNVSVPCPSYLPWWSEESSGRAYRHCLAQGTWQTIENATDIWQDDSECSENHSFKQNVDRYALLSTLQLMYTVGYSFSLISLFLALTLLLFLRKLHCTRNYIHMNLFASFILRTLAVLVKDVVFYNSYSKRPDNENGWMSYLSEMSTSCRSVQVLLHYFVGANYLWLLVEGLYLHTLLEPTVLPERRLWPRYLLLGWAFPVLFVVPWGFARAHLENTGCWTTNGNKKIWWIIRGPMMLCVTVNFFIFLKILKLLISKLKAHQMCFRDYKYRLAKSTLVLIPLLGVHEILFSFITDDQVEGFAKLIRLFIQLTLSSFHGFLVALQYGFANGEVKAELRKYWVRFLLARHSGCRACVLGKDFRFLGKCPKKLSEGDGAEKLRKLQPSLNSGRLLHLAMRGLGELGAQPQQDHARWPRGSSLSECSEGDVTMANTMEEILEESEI
Particulars: control agonist. On the procedure:
as §1

A further test addresses T4, GRPR (Homo sapiens, UniProt P30550).
T4 construct: purchased Eurofins DiscoverX (PathHunter gpcrMAX)
Particulars: control agonist. As for the experimental part: as §1

A further test deals with T5, MCHR2 (Homo sapiens, UniProt Q969V1).
T5 construct: purchased Eurofins DiscoverX (PathHunter gpcrMAX)
The settings on record: screen, control agonist; U2OS, 37C, 2HR.

A further test concerns the target T6, MLNR (Homo sapiens, UniProt O43193).
T6 construct: purchased Eurofins DiscoverX (PathHunter gpcrMAX)
The settings on record: screen, control agonist; CHO, 37C, 2HR.

In the next test the target is T7, NMU1R (Homo sapiens, UniProt Q9HB89).
T7 construct: purchased Eurofins DiscoverX (PathHunter gpcrMAX)
T7 sequence (Q9HB89 1-426): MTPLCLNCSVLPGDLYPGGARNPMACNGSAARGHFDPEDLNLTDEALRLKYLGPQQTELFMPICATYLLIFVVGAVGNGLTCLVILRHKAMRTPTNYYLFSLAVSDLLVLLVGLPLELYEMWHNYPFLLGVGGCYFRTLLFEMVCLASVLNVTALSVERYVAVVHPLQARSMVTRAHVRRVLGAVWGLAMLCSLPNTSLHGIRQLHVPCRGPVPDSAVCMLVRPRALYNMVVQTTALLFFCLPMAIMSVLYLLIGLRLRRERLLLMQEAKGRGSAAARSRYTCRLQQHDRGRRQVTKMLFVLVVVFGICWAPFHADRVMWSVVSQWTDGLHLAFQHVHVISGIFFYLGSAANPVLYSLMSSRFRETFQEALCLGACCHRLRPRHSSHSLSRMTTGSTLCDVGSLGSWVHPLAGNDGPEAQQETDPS
Particulars: screen, control agonist; U2OS, 37C, 2HR.

The next test addresses T8, NPBWR1 (Homo sapiens, UniProt P48145).
T8 construct: purchased Eurofins DiscoverX (PathHunter gpcrMAX)
T8 sequence (P48145 1-328): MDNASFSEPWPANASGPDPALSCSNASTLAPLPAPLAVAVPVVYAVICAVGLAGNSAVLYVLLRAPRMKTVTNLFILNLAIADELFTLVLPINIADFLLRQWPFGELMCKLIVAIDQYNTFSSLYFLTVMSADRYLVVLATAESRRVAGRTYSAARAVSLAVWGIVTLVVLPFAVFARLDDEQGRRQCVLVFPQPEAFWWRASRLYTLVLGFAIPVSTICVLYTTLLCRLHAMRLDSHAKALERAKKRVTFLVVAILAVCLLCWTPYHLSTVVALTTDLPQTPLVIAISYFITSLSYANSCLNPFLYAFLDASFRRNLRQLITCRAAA
Particulars: screen, control agonist; CHO, RT, 2HR.

In a further test the target is T9, NPBWR2 (Homo sapiens, UniProt P48146).
T9 construct: purchased Eurofins DiscoverX (PathHunter gpcrMAX)
The settings on record: screen, control agonist; CHO, 37C, 2HR.

In another test the target is T10, NPFFR1 (Homo sapiens, UniProt Q9GZQ6).
T10 construct: purchased Eurofins DiscoverX (PathHunter gpcrMAX)
The settings on record: screen, control agonist; CHO, 37C, 2HR.

The target of a further test is T11, CCR10 (Homo sapiens, UniProt P46092).
T11 sequence (P46092 1-362): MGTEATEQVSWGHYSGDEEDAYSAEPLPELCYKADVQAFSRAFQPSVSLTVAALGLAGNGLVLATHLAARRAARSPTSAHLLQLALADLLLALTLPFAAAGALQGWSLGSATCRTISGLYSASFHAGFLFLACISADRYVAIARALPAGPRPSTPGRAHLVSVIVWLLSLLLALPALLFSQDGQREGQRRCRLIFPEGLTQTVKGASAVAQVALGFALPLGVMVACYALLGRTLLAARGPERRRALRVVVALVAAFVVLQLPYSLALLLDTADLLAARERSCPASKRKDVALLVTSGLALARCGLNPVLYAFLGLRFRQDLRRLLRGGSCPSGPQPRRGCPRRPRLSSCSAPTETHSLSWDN
Particulars: control agonist. As for the experimental part: as §1

[1] abbreviates: follow-up concentration-response assays.

T4 sequence (P30550 whole entry): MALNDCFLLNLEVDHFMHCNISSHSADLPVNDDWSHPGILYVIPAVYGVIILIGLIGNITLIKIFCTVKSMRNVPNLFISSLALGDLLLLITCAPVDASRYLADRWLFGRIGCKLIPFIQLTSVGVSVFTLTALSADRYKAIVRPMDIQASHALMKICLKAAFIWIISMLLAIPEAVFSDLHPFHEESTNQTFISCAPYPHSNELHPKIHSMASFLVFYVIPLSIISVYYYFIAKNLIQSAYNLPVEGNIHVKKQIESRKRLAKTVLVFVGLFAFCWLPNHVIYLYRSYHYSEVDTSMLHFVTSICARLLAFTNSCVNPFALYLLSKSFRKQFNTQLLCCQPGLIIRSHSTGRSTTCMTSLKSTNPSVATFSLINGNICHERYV
T5 sequence (Q969V1 whole entry): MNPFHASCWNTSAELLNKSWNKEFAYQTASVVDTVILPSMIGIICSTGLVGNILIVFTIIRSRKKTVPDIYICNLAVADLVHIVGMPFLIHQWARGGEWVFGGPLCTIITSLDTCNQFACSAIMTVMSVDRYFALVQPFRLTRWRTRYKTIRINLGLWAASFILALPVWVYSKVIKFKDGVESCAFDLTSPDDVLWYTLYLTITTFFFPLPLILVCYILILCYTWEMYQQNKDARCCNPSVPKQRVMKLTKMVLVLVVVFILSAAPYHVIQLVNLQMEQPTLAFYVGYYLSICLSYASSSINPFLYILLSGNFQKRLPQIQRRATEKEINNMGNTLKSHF
T10 sequence (Q9GZQ6 whole entry): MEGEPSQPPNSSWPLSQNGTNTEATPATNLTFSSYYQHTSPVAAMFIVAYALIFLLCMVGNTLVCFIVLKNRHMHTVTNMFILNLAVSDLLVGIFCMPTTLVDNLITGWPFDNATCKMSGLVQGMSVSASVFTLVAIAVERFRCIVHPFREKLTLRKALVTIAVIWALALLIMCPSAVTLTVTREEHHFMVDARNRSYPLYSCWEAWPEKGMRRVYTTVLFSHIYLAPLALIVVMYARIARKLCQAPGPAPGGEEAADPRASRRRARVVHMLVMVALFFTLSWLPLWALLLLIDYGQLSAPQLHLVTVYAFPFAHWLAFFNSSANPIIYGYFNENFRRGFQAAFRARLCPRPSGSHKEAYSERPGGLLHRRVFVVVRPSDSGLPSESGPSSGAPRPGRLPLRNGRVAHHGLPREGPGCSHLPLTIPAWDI
T9 sequence (P48146 whole entry): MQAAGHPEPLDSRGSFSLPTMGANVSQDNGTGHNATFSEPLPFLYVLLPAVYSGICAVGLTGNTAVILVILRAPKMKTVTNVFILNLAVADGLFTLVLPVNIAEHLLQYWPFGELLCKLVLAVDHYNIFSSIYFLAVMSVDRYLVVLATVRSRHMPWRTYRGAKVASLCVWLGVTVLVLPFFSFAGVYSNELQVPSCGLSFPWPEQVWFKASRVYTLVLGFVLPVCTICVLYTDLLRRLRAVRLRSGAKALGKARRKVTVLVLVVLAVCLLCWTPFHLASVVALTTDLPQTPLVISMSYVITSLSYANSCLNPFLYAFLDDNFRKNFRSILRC
T1 sequence (Q96LB2 whole entry): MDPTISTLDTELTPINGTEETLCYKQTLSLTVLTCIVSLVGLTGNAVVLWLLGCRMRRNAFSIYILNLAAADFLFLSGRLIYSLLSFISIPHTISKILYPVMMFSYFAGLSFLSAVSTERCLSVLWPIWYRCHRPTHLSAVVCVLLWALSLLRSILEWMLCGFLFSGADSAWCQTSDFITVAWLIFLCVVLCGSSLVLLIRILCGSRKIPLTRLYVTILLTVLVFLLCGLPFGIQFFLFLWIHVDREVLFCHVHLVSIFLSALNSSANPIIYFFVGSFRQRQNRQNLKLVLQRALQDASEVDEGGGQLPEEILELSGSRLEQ
T6 sequence (O43193 whole entry): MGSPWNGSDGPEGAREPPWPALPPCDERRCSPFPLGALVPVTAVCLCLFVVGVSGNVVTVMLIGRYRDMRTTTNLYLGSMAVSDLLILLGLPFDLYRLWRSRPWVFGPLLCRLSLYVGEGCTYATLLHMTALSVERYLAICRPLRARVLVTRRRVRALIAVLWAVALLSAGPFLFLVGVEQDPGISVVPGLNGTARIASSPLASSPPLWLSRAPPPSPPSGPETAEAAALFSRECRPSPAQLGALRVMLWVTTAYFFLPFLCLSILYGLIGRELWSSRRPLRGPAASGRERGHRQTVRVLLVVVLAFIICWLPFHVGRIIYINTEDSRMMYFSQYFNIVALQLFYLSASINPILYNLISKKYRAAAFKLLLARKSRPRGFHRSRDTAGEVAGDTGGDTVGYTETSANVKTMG

Molecule BAM(8-22) returned an EC80 at MRGPRX1 of 8580 nM.
As to “Cortistatin 14 (PCKNFFWKTFSSCK; ends and bridges not checked; cysteine pairing not given here; UniProt Q62949 99-112, looked up) [control agonist]”, the EC80 was 737.5 nM with MRGPRX2 (setting [1]) and 738 nM with MRGPRX2 (screen, CHO, 37C, 2HR).
On to GLP II (1-33), for which the EC80 in the test with GLP2R (setting [1]) was found to be 2.96 nM; in the test with GLP2R (screen, CHO, 37C, 2HR) it was 8.88 nM.
On to “GRP: control agonist for GRPR (VPLPAGGGTVLTKMYPRGNHWAVGHLM; not fully specified (C-terminus); UniProt P07492 24-50, looked up)”, for which the EC80 with GRPR (setting [1]) was 1.95 nM; with GRPR (screen, U20S, 37C, 2HR) it was 5.85 nM.
Regarding “MCH: control agonist for MCHR1 and MCHR2”, the EC80 with MCHR2 came to 59.3 nM.
In turn, Motilin showed an EC80 in the test with MLNR of 5.69 nM.
The molecule “Neuromedin U-25 (FRVDEEFQSPFASQSRGYFLFRPRN; ends and bridges not checked; UniProt P48645 142-166, looked up) [control agonist]” gave an EC80 in the test with NMU1R of 3.63 nM.
As for “Neuropeptide W23 (WYKHVASPRYHTVGRAAGLLMGL; Neuropeptide W-23; UniProt Q8N729 33-55, looked up) [control agonist]”, the EC80 with NPBWR1 came out at 8.1 nM; with NPBWR2, 4.04 nM.
RFRP-3: the EC80 with NPFFR1 is 148 nM.

B1: CCL27: control agonist (protein, UniProt Q9Y4X3 25-112, looked up)
C-C motif chemokine 27: FLLPPSTACCTQLYRKPLSDKLLRKVIQVELQEADGDCHLQAFVLHLAQRSICIHPQNPSLSQWFEHQERKLHGTLPKLNFGMLRKMG
As for B1, the EC80 worked out at 90.49 nM with CCR10 (setting [1]) and 30.2 nM with CCR10 (screen, U2OS, 37C, 2HR).
